Data set [1] concerns the molecule itself. Kind of data set: native gel or EMSA. For orientation: In EMSA bound probe runs differently from free probe, usually more slowly.
Data set [2] deals with the molecule itself. Kind of data set: SDS-PAGE of LDS-resistant high molecular weight species.
Data set [3] deals with the molecule itself. Kind of data set: semi-denaturing detergent agarose gel electrophoresis.
In data set [4] the target is UBE2D3 WT (UniProt P61077 1-147). Kind of data set: ITC.
Chain of UBE2D3 WT (P61077 whole entry): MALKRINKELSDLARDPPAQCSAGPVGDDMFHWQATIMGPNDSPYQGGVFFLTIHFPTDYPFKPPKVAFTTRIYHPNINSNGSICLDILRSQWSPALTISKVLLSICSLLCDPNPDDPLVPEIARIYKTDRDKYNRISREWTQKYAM

B1: WT-ZNFX1 reconstituted in T-REx-293 ZNFX1 KO cells (enzyme)
chain: MEERRPHLDARPRNSHTNHRGPVDGELPPRARNQANNPPANALRGGASHPGRHPRANNHPAAYWQREERFRAMGRNPHQGRRNQEGHASDEARDQRHDQENDTRWRNGNQDCRNRRPPWSNDNFQQWRTPHQKPTEQPQQAKKLGYKFLESLLQKDPSEVVITLATSLGLKELLSHSSMKSNFLELICQVLRKACSSKMDRQSVLHVLGILKNSKFLKVCLPAYVVGMITEPIPDIRNQYPEHISNIISLLQDLVSVFPASSVQETSMLVSLLPTSLNALRASGVDIEEETEKNLEKVQTIIEHLQEKRREGTLRVDTYTLVQPEAEDHVESYRTMPIYPTYNEVHLDERPFLRPNIISGKYDSTAIYLDTHFRLLREDFVRPLREGILELLQSFEDQGLRKRKFDDIRIYFDTRIITPMCSSSGIVYKVQFDTKPLKFVRWQNSKRLLYGSLVCMSKDNFETFLFATVSNREQEDLCRGIVQLCFNEQSQQLLAEVQPSDSFLMVETTAYFEAYRHVLEGLQEVQEEDVPFQRNIVECNSHVKEPRYLLMGGRYDFTPLIENPSATGEFLRNVEGLRHPRINVLDPGQWPSKEALKLDDSQMEALQFALTRELAIIQGPPGTGKTYVGLKIVQALLTNESVWQISLQKFPILVVCYTNHALDQFLEGIYNCQKTSIVRVGGRSNSEILKQFTLRELRNKREFRRNLPMHLRRAYMSIMTQMKESEQELHEGAKTLECTMRGVLREQYLQKYISPQHWESLMNGPVQDSEWICFQHWKHSMMLEWLGLGVGSFTQSVSPAGPENTAQAEGDEEEEGEEESSLIEIAEEADLIQADRVIEEEEVVRPQRRKKEESGADQELAKMLLAMRLDHCGTGTAAGQEQATGEWQTQRNQKKKMKKRVKDELRKLNTMTAAEANEIEDVWQLDLSSRWQLYRLWLQLYQADTRRKILSYERQYRTSAERMAELRLQEDLHILKDAQVVGMTTTGAAKYRQILQKVEPRIVIVEEAAEVLEAHTIATLSKACQHLILIGDHQQLRPSANVYDLAKNFNLEVSLFERLVKVNIPFVRLNYQHRMCPEIARLLTPHIYQDLENHPSVLKYEKIKGVSSNLFFVEHNFPEQEIQEGKSHQNQHEAHFVVELCKYFLCQEYLPSQITILTTYTGQLFCLRKLMPAKTFAGVRVHVVDKYQGEENDIILLSLVRSNQEGKVGFLQISNRICVALSRAKKGMYCIGNMQMLAKVPLWSKIIHTLRENNQIGPMLRLCCQNHPETHTLVSKASDFQKVPEGGCSLPCEFRLGCGHVCTRACHPYDSSHKEFQCMKPCQKVICQEGHRCPLVCFQECQPCQVKVPKTIPRCGHEQMVPCSVPESDFCCQEPCSKSLRCGHRCSHPCGEDCVQLCSEMVTIKLKCGHSQPVKCGHVEGLLYGGLLVKCTTKCGTILDCGHPCPGSCHSCFEGRFHERCQQPCKRLLICSHKCQEPCIGECPPCQRTCQNRCVHSQCKKKCGELCSPCVEPCVWRCQHYQCTKLCSEPCNRPPCYVPCTKLLVCGHPCIGLCGEPCPKKCRICHMDEVTQIFFGFEDEPDARFVQLEDCSHIFEVQALDRYMNEQKDDEVAIRLKVCPICQVPIRKNLRYGTSIKQRLEEIEIIKEKIQGSAGEIATSQERLKALLERKSLLHQLLPEDFLMLKEKLAQKNLSVKDLGLVENYISFYDHLASLWDSLKKMHVLEEKRVRTRLEQVHEWLAKKRLSFTSQELSDLRSEIQRLTYLVNLLTRYKIAEKKVKDSIAVEVYSVQNILEKTCKFTQEDEQLVQEKMEALKATLPCSGLGISEEERVQIVSAIGYPRGHWFKCRNGHIYVIGDCGGAMERGTCPDCKEVIGGTNHTLERSNQLASEMDGAQHAAWSDTANNLMNFEEIQGMM
Broadly, the stoichiometry N is the number of molecules, sites or subunits per partner or assembly. As to B1, in data set [1], the “stoichiometry N” value amounted to 2.

B2: ZNFX1FL F1210A/R1216A (FARA mutant) (enzyme)
chain: MEERRPHLDARPRNSHTNHRGPVDGELPPRARNQANNPPANALRGGASHPGRHPRANNHPAAYWQREERFRAMGRNPHQGRRNQEGHASDEARDQRHDQENDTRWRNGNQDCRNRRPPWSNDNFQQWRTPHQKPTEQPQQAKKLGYKFLESLLQKDPSEVVITLATSLGLKELLSHSSMKSNFLELICQVLRKACSSKMDRQSVLHVLGILKNSKFLKVCLPAYVVGMITEPIPDIRNQYPEHISNIISLLQDLVSVFPASSVQETSMLVSLLPTSLNALRASGVDIEEETEKNLEKVQTIIEHLQEKRREGTLRVDTYTLVQPEAEDHVESYRTMPIYPTYNEVHLDERPFLRPNIISGKYDSTAIYLDTHFRLLREDFVRPLREGILELLQSFEDQGLRKRKFDDIRIYFDTRIITPMCSSSGIVYKVQFDTKPLKFVRWQNSKRLLYGSLVCMSKDNFETFLFATVSNREQEDLCRGIVQLCFNEQSQQLLAEVQPSDSFLMVETTAYFEAYRHVLEGLQEVQEEDVPFQRNIVECNSHVKEPRYLLMGGRYDFTPLIENPSATGEFLRNVEGLRHPRINVLDPGQWPSKEALKLDDSQMEALQFALTRELAIIQGPPGTGKTYVGLKIVQALLTNESVWQISLQKFPILVVCYTNHALDQFLEGIYNCQKTSIVRVGGRSNSEILKQFTLRELRNKREFRRNLPMHLRRAYMSIMTQMKESEQELHEGAKTLECTMRGVLREQYLQKYISPQHWESLMNGPVQDSEWICFQHWKHSMMLEWLGLGVGSFTQSVSPAGPENTAQAEGDEEEEGEEESSLIEIAEEADLIQADRVIEEEEVVRPQRRKKEESGADQELAKMLLAMRLDHCGTGTAAGQEQATGEWQTQRNQKKKMKKRVKDELRKLNTMTAAEANEIEDVWQLDLSSRWQLYRLWLQLYQADTRRKILSYERQYRTSAERMAELRLQEDLHILKDAQVVGMTTTGAAKYRQILQKVEPRIVIVEEAAEVLEAHTIATLSKACQHLILIGDHQQLRPSANVYDLAKNFNLEVSLFERLVKVNIPFVRLNYQHRMCPEIARLLTPHIYQDLENHPSVLKYEKIKGVSSNLFFVEHNFPEQEIQEGKSHQNQHEAHFVVELCKYFLCQEYLPSQITILTTYTGQLFCLRKLMPAKTFAGVRVHVVDKYQGEENDIILLSLVRSNQEGKVGALQISNAICVALSRAKKGMYCIGNMQMLAKVPLWSKIIHTLRENNQIGPMLRLCCQNHPETHTLVSKASDFQKVPEGGCSLPCEFRLGCGHVCTRACHPYDSSHKEFQCMKPCQKVICQEGHRCPLVCFQECQPCQVKVPKTIPRCGHEQMVPCSVPESDFCCQEPCSKSLRCGHRCSHPCGEDCVQLCSEMVTIKLKCGHSQPVKCGHVEGLLYGGLLVKCTTKCGTILDCGHPCPGSCHSCFEGRFHERCQQPCKRLLICSHKCQEPCIGECPPCQRTCQNRCVHSQCKKKCGELCSPCVEPCVWRCQHYQCTKLCSEPCNRPPCYVPCTKLLVCGHPCIGLCGEPCPKKCRICHMDEVTQIFFGFEDEPDARFVQLEDCSHIFEVQALDRYMNEQKDDEVAIRLKVCPICQVPIRKNLRYGTSIKQRLEEIEIIKEKIQGSAGEIATSQERLKALLERKSLLHQLLPEDFLMLKEKLAQKNLSVKDLGLVENYISFYDHLASLWDSLKKMHVLEEKRVRTRLEQVHEWLAKKRLSFTSQELSDLRSEIQRLTYLVNLLTRYKIAEKKVKDSIAVEVYSVQNILEKTCKFTQEDEQLVQEKMEALKATLPCSGLGISEEERVQIVSAIGYPRGHWFKCRNGHIYVIGDCGGAMERGTCPDCKEVIGGTNHTLERSNQLASEMDGAQHAAWSDTANNLMNFEEIQGMM
For B2, the binding result in data set [2] is “binds”.

B3: full length ZNFX1 expressed in insect cells (ZNFX1FL) (enzyme)
chain: MEERRPHLDARPRNSHTNHRGPVDGELPPRARNQANNPPANALRGGASHPGRHPRANNHPAAYWQREERFRAMGRNPHQGRRNQEGHASDEARDQRHDQENDTRWRNGNQDCRNRRPPWSNDNFQQWRTPHQKPTEQPQQAKKLGYKFLESLLQKDPSEVVITLATSLGLKELLSHSSMKSNFLELICQVLRKACSSKMDRQSVLHVLGILKNSKFLKVCLPAYVVGMITEPIPDIRNQYPEHISNIISLLQDLVSVFPASSVQETSMLVSLLPTSLNALRASGVDIEEETEKNLEKVQTIIEHLQEKRREGTLRVDTYTLVQPEAEDHVESYRTMPIYPTYNEVHLDERPFLRPNIISGKYDSTAIYLDTHFRLLREDFVRPLREGILELLQSFEDQGLRKRKFDDIRIYFDTRIITPMCSSSGIVYKVQFDTKPLKFVRWQNSKRLLYGSLVCMSKDNFETFLFATVSNREQEDLCRGIVQLCFNEQSQQLLAEVQPSDSFLMVETTAYFEAYRHVLEGLQEVQEEDVPFQRNIVECNSHVKEPRYLLMGGRYDFTPLIENPSATGEFLRNVEGLRHPRINVLDPGQWPSKEALKLDDSQMEALQFALTRELAIIQGPPGTGKTYVGLKIVQALLTNESVWQISLQKFPILVVCYTNHALDQFLEGIYNCQKTSIVRVGGRSNSEILKQFTLRELRNKREFRRNLPMHLRRAYMSIMTQMKESEQELHEGAKTLECTMRGVLREQYLQKYISPQHWESLMNGPVQDSEWICFQHWKHSMMLEWLGLGVGSFTQSVSPAGPENTAQAEGDEEEEGEEESSLIEIAEEADLIQADRVIEEEEVVRPQRRKKEESGADQELAKMLLAMRLDHCGTGTAAGQEQATGEWQTQRNQKKKMKKRVKDELRKLNTMTAAEANEIEDVWQLDLSSRWQLYRLWLQLYQADTRRKILSYERQYRTSAERMAELRLQEDLHILKDAQVVGMTTTGAAKYRQILQKVEPRIVIVEEAAEVLEAHTIATLSKACQHLILIGDHQQLRPSANVYDLAKNFNLEVSLFERLVKVNIPFVRLNYQHRMCPEIARLLTPHIYQDLENHPSVLKYEKIKGVSSNLFFVEHNFPEQEIQEGKSHQNQHEAHFVVELCKYFLCQEYLPSQITILTTYTGQLFCLRKLMPAKTFAGVRVHVVDKYQGEENDIILLSLVRSNQEGKVGFLQISNRICVALSRAKKGMYCIGNMQMLAKVPLWSKIIHTLRENNQIGPMLRLCCQNHPETHTLVSKASDFQKVPEGGCSLPCEFRLGCGHVCTRACHPYDSSHKEFQCMKPCQKVICQEGHRCPLVCFQECQPCQVKVPKTIPRCGHEQMVPCSVPESDFCCQEPCSKSLRCGHRCSHPCGEDCVQLCSEMVTIKLKCGHSQPVKCGHVEGLLYGGLLVKCTTKCGTILDCGHPCPGSCHSCFEGRFHERCQQPCKRLLICSHKCQEPCIGECPPCQRTCQNRCVHSQCKKKCGELCSPCVEPCVWRCQHYQCTKLCSEPCNRPPCYVPCTKLLVCGHPCIGLCGEPCPKKCRICHMDEVTQIFFGFEDEPDARFVQLEDCSHIFEVQALDRYMNEQKDDEVAIRLKVCPICQVPIRKNLRYGTSIKQRLEEIEIIKEKIQGSAGEIATSQERLKALLERKSLLHQLLPEDFLMLKEKLAQKNLSVKDLGLVENYISFYDHLASLWDSLKKMHVLEEKRVRTRLEQVHEWLAKKRLSFTSQELSDLRSEIQRLTYLVNLLTRYKIAEKKVKDSIAVEVYSVQNILEKTCKFTQEDEQLVQEKMEALKATLPCSGLGISEEERVQIVSAIGYPRGHWFKCRNGHIYVIGDCGGAMERGTCPDCKEVIGGTNHTLERSNQLASEMDGAQHAAWSDTANNLMNFEEIQGMM
As to B3, in data set [3], the binding result is given as “binds”.

B4: ZNFX1 Z-RING (residues 1533-1631), wild type (domain or fragment)
chain: RPPCYVPCTKLLVCGHPCIGLCGEPCPKKCRICHMDEVTQIFFGFEDEPDARFVQLEDCSHIFEVQALDRYMNEQKDDEVAIRLKVCPICQVPIRKNLR
One may read the Kd as the free concentration of one partner at which half of the binding sites on the other are occupied at equilibrium, for simple one-to-one binding. A high value points to weaker binding. With B4, in data set [4], the equilibrium dissociation constant (Kd) is 41 µM and the dH was 2.04 kcal/mol.

These data come from doi:10.1101/2025.09.05.674436 (bioRxiv, 2025).
